In the supplement of paper PMC9112550, “Optimization of the antimicrobial peptide Bac7 by deep mutational scanning” (BMC Biology, 2022):

Tested on: Escherichia coli TOP10
Test: shrunken log2 fold change of peptide-encoding DNA abundance (4.5 h post-induction vs induction); higher = less antimicrobial activity (less host growth inhibition)
Details: time post-induction: 4.5 h; library: site-saturation at positions 5, 18, 19, 20
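Note: peptides expressed intracellularly from a pBAD plasmid library in pooled LB shake-flask culture, induced with 0.3% L-arabinose, DNA abundance read by NGS, three biological replicates, DESeq2 with apeglm shrinkage.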

Sequence | shrunken log2 fold change
RRIRFRPPRLPRPRPRPPIDPRP | 0.113
RRIRVRPPRLPRPRPRPYMYPRP | -0.588
RRIRRRPPRLPRPRPRPSEMPRP | 0.0772
RRIRKRPPRLPRPRPRPVSFPRP | -0.0599
RRIRRRPPRLPRPRPRPYNWPRP | -0.734
RRIRRRPPRLPRPRPRPEDQPRP | 0.196
RRIRVRPPRLPRPRPRPCKEPRP | -0.335
RRIRERPPRLPRPRPRPVCRPRP | -0.0104
RRIRWRPPRLPRPRPRPWKSPRP | 0.0574
RRIRERPPRLPRPRPRPPQQPRP | 0.00573
RRIRFRPPRLPRPRPRPISPPRP | -0.211
RRIRRRPPRLPRPRPRPFTHPRP | -0.174
RRIRGRPPRLPRPRPRPEKSPRP | 0.0928
RRIRVRPPRLPRPRPRPDAWPRP | 0.0757
RRIRLRPPRLPRPRPRPGPPPRP | 0.445
RRIRRRPPRLPRPRPRPVLFPRP | 0.315
RRIRNRPPRLPRPRPRPQHAPRP | -0.0717
RRIRARPPRLPRPRPRPDIFPRP | 0.148
RRIRFRPPRLPRPRPRPLFKPRP | -0.279
RRIRLRPPRLPRPRPRPWNTPRP | -0.444
RRIRPRPPRLPRPRPRPWMTPRP | 0.0158
RRIRLRPPRLPRPRPRPYYLPRP | -0.477
RRIRNRPPRLPRPRPRPQWPPRP | 0.00622
RRIRKRPPRLPRPRPRPANTPRP | -0.0533
RRIRNRPPRLPRPRPRPDRCPRP | -0.0122

Sequence | shrunken log2 fold change
RRIRCRPPRLPRPRPRPSGPPRP | 0.124
RRIRTRPPRLPRPRPRPRTHPRP | -0.0753
RRIRARPPRLPRPRPRPRTTPRP | 0.755
RRIRKRPPRLPRPRPRPVGSPRP | 0.178
RRIRERPPRLPRPRPRPEPPPRP | 0.595
RRIRVRPPRLPRPRPRPGVKPRP | 0.303
RRIRNRPPRLPRPRPRPHICPRP | -0.0994
RRIRRRPPRLPRPRPRPAGVPRP | 0.518
RRIRYRPPRLPRPRPRPWSTPRP | -0.458
RRIRMRPPRLPRPRPRPKAAPRP | 3.33
RRIRLRPPRLPRPRPRPHVYPRP | -0.211
RRIRLRPPRLPRPRPRPCGWPRP | 0.124
RRIRERPPRLPRPRPRPVLSPRP | -0.101
RRIRNRPPRLPRPRPRPNKLPRP | -0.36
RRIRWRPPRLPRPRPRPYCLPRP | -0.633
RRIRTRPPRLPRPRPRPTHVPRP | 0.122
RRIRTRPPRLPRPRPRPVIGPRP | 0.13
RRIRKRPPRLPRPRPRPAMMPRP | 1.24
RRIRMRPPRLPRPRPRPSTIPRP | -0.23
RRIRHRPPRLPRPRPRPMCHPRP | -0.00674
RRIRLRPPRLPRPRPRPIFIPRP | 0.606
RRIRVRPPRLPRPRPRPCCAPRP | 0.151
RRIRCRPPRLPRPRPRPWHHPRP | -1.14
RRIRDRPPRLPRPRPRPTRWPRP | 1.38
RRIRDRPPRLPRPRPRPMDDPRP | -0.000946

Sequence | shrunken log2 fold change
RRIRHRPPRLPRPRPRPDLQPRP | -0.15
RRIRDRPPRLPRPRPRPNMMPRP | 0.0387
RRIRGRPPRLPRPRPRPDLAPRP | 1.59
RRIRDRPPRLPRPRPRPHRLPRP | 0.033
RRIRFRPPRLPRPRPRPSTKPRP | 0.0858
RRIRERPPRLPRPRPRPYWAPRP | -0.888
RRIRQRPPRLPRPRPRPPHMPRP | 0.287
RRIRVRPPRLPRPRPRPVYHPRP | -0.544
RRIRHRPPRLPRPRPRPLWRPRP | 0.57
RRIRTRPPRLPRPRPRPREWPRP | 0.259
RRIRNRPPRLPRPRPRPTCHPRP | -0.643
RRIRRRPPRLPRPRPRPIYEPRP | 0.0785
RRIRIRPPRLPRPRPRPQRFPRP | -0.231
RRIRNRPPRLPRPRPRPRSMPRP | -0.365
RRIRRRPPRLPRPRPRPWLTPRP | -0.245
RRIRMRPPRLPRPRPRPVDGPRP | 1.08
RRIRMRPPRLPRPRPRPEHCPRP | 0.429
RRIRNRPPRLPRPRPRPTKLPRP | 0.0886
RRIRCRPPRLPRPRPRPIVSPRP | -0.506
RRIRIRPPRLPRPRPRPATQPRP | 0.129
RRIRHRPPRLPRPRPRPGTIPRP | -0.00536
RRIRLRPPRLPRPRPRPRFEPRP | 0.529
RRIRKRPPRLPRPRPRPAVAPRP | 0.0118
RRIRQRPPRLPRPRPRPNFGPRP | -0.0871
RRIRERPPRLPRPRPRPSMRPRP | 0.353

Sequence | shrunken log2 fold change
RRIRGRPPRLPRPRPRPVSLPRP | 0.321
RRIRRRPPRLPRPRPRPGCRPRP | 0.459
RRIRERPPRLPRPRPRPNMSPRP | -0.179
RRIRNRPPRLPRPRPRPKLNPRP | -0.208
RRIRYRPPRLPRPRPRPHYDPRP | -0.557
RRIRKRPPRLPRPRPRPVMCPRP | 0.0989
RRIRWRPPRLPRPRPRPSDGPRP | -0.785
RRIRIRPPRLPRPRPRPCRMPRP | -0.186
RRIRYRPPRLPRPRPRPMHDPRP | -0.598
RRIRQRPPRLPRPRPRPNRDPRP | -0.178
RRIRERPPRLPRPRPRPHFQPRP | 0.0177
RRIRLRPPRLPRPRPRPECPPRP | 0.0712
RRIRFRPPRLPRPRPRPHFVPRP | -0.176
RRIRQRPPRLPRPRPRPRGFPRP | 0.0677
RRIRWRPPRLPRPRPRPSAPPRP | 0.499
RRIRWRPPRLPRPRPRPSEGPRP | 0.0528
RRIRQRPPRLPRPRPRPIKRPRP | -0.354
RRIRVRPPRLPRPRPRPYHCPRP | -0.157
RRIRPRPPRLPRPRPRPSMVPRP | -0.376
RRIRDRPPRLPRPRPRPHMMPRP | 0.158
RRIRNRPPRLPRPRPRPMLQPRP | 0.00157
RRIRTRPPRLPRPRPRPWIDPRP | -0.0368
RRIRGRPPRLPRPRPRPLLIPRP | 0.61
RRIRNRPPRLPRPRPRPWMFPRP | -0.182
RRIRGRPPRLPRPRPRPGMNPRP | 0.105

Sequence | shrunken log2 fold change
RRIRCRPPRLPRPRPRPQMHPRP | -0.27
RRIRRRPPRLPRPRPRPAQTPRP | 0.348
RRIRSRPPRLPRPRPRPSSTPRP | -0.397
RRIRNRPPRLPRPRPRPKMYPRP | -0.0156
RRIRCRPPRLPRPRPRPFCEPRP | 0.000102
RRIRERPPRLPRPRPRPVMDPRP | -0.0467
RRIRKRPPRLPRPRPRPFGGPRP | -0.043
RRIRWRPPRLPRPRPRPYLFPRP | -0.31
RRIRFRPPRLPRPRPRPLFPPRP | -0.23
RRIRFRPPRLPRPRPRPWTPPRP | -0.26
RRIRIRPPRLPRPRPRPQFKPRP | -0.609
RRIRHRPPRLPRPRPRPPGDPRP | 0.477
RRIRCRPPRLPRPRPRPNTRPRP | -0.267
RRIRRRPPRLPRPRPRPAWLPRP | 0.505
RRIRVRPPRLPRPRPRPKHLPRP | 0.0232
RRIRFRPPRLPRPRPRPLLQPRP | 0.0394
RRIRRRPPRLPRPRPRPTYEPRP | -0.21
RRIRNRPPRLPRPRPRPHEEPRP | -0.0188
RRIRLRPPRLPRPRPRPPFRPRP | 0.526
RRIRWRPPRLPRPRPRPGGDPRP | 0.556
RRIRPRPPRLPRPRPRPSTHPRP | -0.203
RRIRCRPPRLPRPRPRPITCPRP | -0.159
RRIRGRPPRLPRPRPRPCKEPRP | -0.0407
RRIRFRPPRLPRPRPRPNMTPRP | -0.43
RRIRMRPPRLPRPRPRPPMLPRP | 0.382

Sequence | shrunken log2 fold change
RRIRDRPPRLPRPRPRPLNKPRP | -0.295
RRIRVRPPRLPRPRPRPPLPPRP | 0.325
RRIRHRPPRLPRPRPRPDMAPRP | -0.0459
RRIRWRPPRLPRPRPRPKTQPRP | 0.0326
RRIRVRPPRLPRPRPRPFVEPRP | -0.361
RRIRCRPPRLPRPRPRPLGNPRP | -0.229
RRIRQRPPRLPRPRPRPHYFPRP | -0.239
RRIRNRPPRLPRPRPRPLERPRP | 0.0661
RRIRMRPPRLPRPRPRPLLDPRP | 0.409
RRIRKRPPRLPRPRPRPMCCPRP | -0.178
RRIRMRPPRLPRPRPRPQLQPRP | 0.165
RRIRERPPRLPRPRPRPGMAPRP | 0.188
RRIRKRPPRLPRPRPRPYEEPRP | -0.0817
RRIRRRPPRLPRPRPRPFTTPRP | -0.0176
RRIRWRPPRLPRPRPRPWYYPRP | -0.321
RRIRHRPPRLPRPRPRPTGCPRP | -0.0228
RRIRARPPRLPRPRPRPMWTPRP | 0.0207
RRIRKRPPRLPRPRPRPQSPPRP | 0.18
RRIRSRPPRLPRPRPRPLYAPRP | -0.164
RRIRNRPPRLPRPRPRPCVSPRP | 0.0348
RRIRCRPPRLPRPRPRPIMLPRP | -0.587
RRIRNRPPRLPRPRPRPQNKPRP | -0.666
RRIRHRPPRLPRPRPRPHDTPRP | -1.08
RRIRARPPRLPRPRPRPYDLPRP | 0.0526
RRIRDRPPRLPRPRPRPLQRPRP | -0.00347
